# Laboratory results taken from PMC11927390.
# Assays:
# [1] = target: FcγRIIIa on the effector cells of the Promega ADCC Reporter Bioassay (human) (UniProt P08637)
# [2] = target: recombinant soluble ULBP6-02 (human) (UniProt Q5VY80)
# [3] = target: human FcγRI, biotinylated (human) (UniProt P12314); test: SPR; Biacore, 37°C; biotinylated FcγRs captured on Series S Sensor Chip CAP; threefold serial dilutions of the anti-ULBP6/2/5 antibodies injected at 30 μL/minute; HBS-P
# [4] = target: human FcγRIIIa-F176, biotinylated (human) (UniProt P08637); test: as above
# Sequence of human FcγRIIIa-F176, biotinylated (human) (P08637 17-254): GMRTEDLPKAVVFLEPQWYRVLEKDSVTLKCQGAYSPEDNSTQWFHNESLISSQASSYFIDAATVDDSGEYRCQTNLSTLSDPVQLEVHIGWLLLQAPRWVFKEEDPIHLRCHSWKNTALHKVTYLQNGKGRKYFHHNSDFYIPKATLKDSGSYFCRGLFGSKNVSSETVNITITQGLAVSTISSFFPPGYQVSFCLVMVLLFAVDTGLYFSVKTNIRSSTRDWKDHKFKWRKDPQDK
# [5] = target: human FcγRIIIa-V176, biotinylated (human) (UniProt P08637); test: as above
# Sequence of human FcγRIIIa-V176, biotinylated (human) (P08637 17-254 F176V): as the sequence (P08637 17-254) above, with F160V counted along it
# [6] = target: human FcγRIIa-H167, biotinylated (human) (UniProt P12318); test: as above
# Sequence of human FcγRIIa-H167, biotinylated (human) (P12318 34-317): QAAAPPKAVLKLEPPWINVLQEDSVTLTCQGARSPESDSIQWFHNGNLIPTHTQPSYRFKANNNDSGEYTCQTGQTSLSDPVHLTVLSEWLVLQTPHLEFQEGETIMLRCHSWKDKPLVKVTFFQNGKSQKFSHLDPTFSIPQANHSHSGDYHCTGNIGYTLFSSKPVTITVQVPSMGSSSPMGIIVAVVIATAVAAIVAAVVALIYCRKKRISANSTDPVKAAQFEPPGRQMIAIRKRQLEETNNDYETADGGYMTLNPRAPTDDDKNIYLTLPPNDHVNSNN
# [7] = target: human FcγRIIa-R167, biotinylated (human) (UniProt P12318); test: as above
# Sequence of human FcγRIIa-R167, biotinylated (human) (P12318 34-317 H167R): as the sequence (P12318 34-317) above, with H134R counted along it
# [8] = target: human FcγRIIb, biotinylated (human) (UniProt P31994); test: as above
# Sequence of human FcγRIIb, biotinylated (human) (P31994 43-310): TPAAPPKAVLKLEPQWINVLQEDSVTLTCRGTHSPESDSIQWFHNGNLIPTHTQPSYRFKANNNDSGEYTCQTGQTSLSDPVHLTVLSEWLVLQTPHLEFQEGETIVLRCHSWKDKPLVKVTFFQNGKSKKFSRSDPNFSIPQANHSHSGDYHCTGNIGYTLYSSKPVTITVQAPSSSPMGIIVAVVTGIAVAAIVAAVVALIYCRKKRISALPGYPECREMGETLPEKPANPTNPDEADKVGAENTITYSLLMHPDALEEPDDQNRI
# [9] = target: recombinant soluble ULBP6-02 (human) (UniProt Q5VY80); remark: listed apart in the source
# human NKG2D Fc (human) = human NKG2D Fc (human) (UniProt P26718); test: SPR; Biacore 8K or 8K+, 37°C; NKG2D Fc captured (Protein A chip as told for human NKG2D-Fc), ULBP6 as analyte in HBS-P (0.01 mol/L HEPES pH 7.4, 0.15 mol/L NaCl, 0.005% P20); kinetic or steady-state fit not given
# Sequence of human NKG2D Fc (human) (P26718 73-216): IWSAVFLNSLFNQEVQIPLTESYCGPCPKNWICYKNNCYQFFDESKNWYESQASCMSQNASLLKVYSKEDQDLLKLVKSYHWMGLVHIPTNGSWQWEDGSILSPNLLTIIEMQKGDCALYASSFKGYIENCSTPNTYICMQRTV
# murine NKG2D Fc (murine) = murine NKG2D Fc (murine) (UniProt O54709); test: as above
# Sequence of murine NKG2D Fc (murine) (O54709 90-232): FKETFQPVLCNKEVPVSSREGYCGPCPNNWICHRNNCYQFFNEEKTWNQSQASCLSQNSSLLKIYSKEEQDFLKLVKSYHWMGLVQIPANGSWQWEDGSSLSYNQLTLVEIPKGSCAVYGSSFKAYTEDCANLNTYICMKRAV
# Sequence of FcγRIIIa on the effector cells of the Promega ADCC Reporter Bioassay (human) (P08637 17-254): as the sequence (P08637 17-254) above
# Sequence of human FcγRI, biotinylated (human) (P12314 16-374): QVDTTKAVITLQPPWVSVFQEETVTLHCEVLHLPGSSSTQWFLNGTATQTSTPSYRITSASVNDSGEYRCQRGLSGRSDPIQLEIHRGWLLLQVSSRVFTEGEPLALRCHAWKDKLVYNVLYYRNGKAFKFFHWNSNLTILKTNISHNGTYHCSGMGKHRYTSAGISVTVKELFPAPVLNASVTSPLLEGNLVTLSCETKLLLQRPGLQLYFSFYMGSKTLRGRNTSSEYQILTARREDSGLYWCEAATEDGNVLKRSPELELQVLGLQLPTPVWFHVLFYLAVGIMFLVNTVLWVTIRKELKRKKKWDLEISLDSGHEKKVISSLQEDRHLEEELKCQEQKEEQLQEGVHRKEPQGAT
substance,measurement,setting,value
"23ME-01473, humanized Fc effector-enhanced (afucosylated) anti-ULBP6/2/5 antibody","EC50 of FcγRIIIa activation (RLU), Promega ADCC reporter assay with luciferase effector cells and COV644 target cells, 0.0001 to 10 nmol/L antibody",[1],0.0532 nM
same,"IC50 (so in the source) of IFNγ secretion by IL-2/IL-15-primed PBMCs cocultured with COV644 cells and 50 nmol/L sULBP6-02, 0.05-200 nmol/L 23ME-01473, donor d1213; pair blocked: sULBP6-02 and NKG2D",[2],21.5 nM
same,"IC50 (so in the source) of IFNγ secretion by IL-2/IL-15-primed PBMCs cocultured with COV644 cells and 50 nmol/L sULBP6-02, 0.05-200 nmol/L 23ME-01473, donor d1802; pair blocked: sULBP6-02 and NKG2D",[2],25.5 nM
same,"IC50 (so in the source) of IFNγ secretion by IL-2/IL-15-primed PBMCs cocultured with COV644 cells and 50 nmol/L sULBP6-02, 0.05-200 nmol/L 23ME-01473, donor d3761; pair blocked: sULBP6-02 and NKG2D",[2],13.6 nM
same,"IC50 (so in the source) of IFNγ secretion by IL-2/IL-15-primed PBMCs cocultured with COV644 cells and 50 nmol/L sULBP6-02, 0.05-200 nmol/L 23ME-01473, donor d33936; pair blocked: sULBP6-02 and NKG2D",[2],25.6 nM
same,Kd,[3],0.92 nM
same,Kd,[4],25.5 nM
same,Kd,[5],6.74 nM
same,Kd,[6],270 nM
same,Kd,[7],406 nM
same,Kd,[8],2230 nM
"Fc-Att-anti-ULBP6/2/5, effector-attenuated (N297G) version of 23ME-01473 (antibody)","IC50 (so in the source) of the rescue of IFNγ production by PBMCs cocultured with COV644 cells in the presence of sULBP6, donor d1212; pair blocked: sULBP6-02 and NKG2D",[9],26 nM
same,"IC50 (so in the source) of the rescue of IFNγ production by PBMCs cocultured with COV644 cells in the presence of sULBP6, donor d1939; pair blocked: sULBP6-02 and NKG2D",[9],10.6 nM
same,"IC50 (so in the source) of the rescue of IFNγ production by PBMCs cocultured with COV644 cells in the presence of sULBP6, donor d33936; pair blocked: sULBP6-02 and NKG2D",[9],16.5 nM
human ULBP6 (analyte of Supplementary Table S6) (from UniProt Q5VY80 26-218) (ligand),Kd,human NKG2D Fc (human),0.8 nM
same,Kd,murine NKG2D Fc (murine),0.64 nM
